Target: T1, NRSF/REST DBD (refolded by 2DR) (UniProt Q13127 159-412)
T1 sequence: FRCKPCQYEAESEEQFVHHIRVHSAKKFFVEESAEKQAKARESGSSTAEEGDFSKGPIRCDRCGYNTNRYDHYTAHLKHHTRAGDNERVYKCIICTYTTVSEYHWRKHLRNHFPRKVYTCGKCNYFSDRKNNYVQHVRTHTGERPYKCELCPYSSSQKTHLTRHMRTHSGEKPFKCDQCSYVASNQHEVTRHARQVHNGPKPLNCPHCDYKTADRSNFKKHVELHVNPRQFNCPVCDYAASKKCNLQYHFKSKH
Test: EMSA; 0.1 mM ZnCl2; DBD:DNA 0:1 to 3:1, 75 pmol DNA in 20 ul; 10 mM Tris pH 7.0, 0.1 mM ZnCl2, 20 ul, 30 min at room temperature; 5% native PAGE, EtBr stain
Settings: protein: recombinant; label: none (EtBr stain); blunt

B1: NRSE/RE1 dsDNA (dsDNA)
DNA 1: TTCAGCACCACGGACAGCGCC
DNA 2: GGCGCTGTCCGTGGTGCTGAA
binding result: binds

— paper PMC3146519, “Highly Efficient Production of Soluble Proteins from Insoluble Inclusion Bodies by a Two-Step-Denaturing and Refolding Method”
